Data taken from patent US20130171184A1.

Target: Neisseria meningitidis Hsf (Msf) of strain H44/76, expressed on meningococci (Neisseria meningitidis strain H44/76) (UniProt Q7DDJ2)
Experiment: ELISA, bacteria preincubated with 25 µg/ml peptide, binding to 2.5 µg/ml immobilised aVn

Chain of Neisseria meningitidis Hsf (Msf) of strain H44/76, expressed on meningococci (Neisseria meningitidis strain H44/76) (Q7DDJ2 52-591): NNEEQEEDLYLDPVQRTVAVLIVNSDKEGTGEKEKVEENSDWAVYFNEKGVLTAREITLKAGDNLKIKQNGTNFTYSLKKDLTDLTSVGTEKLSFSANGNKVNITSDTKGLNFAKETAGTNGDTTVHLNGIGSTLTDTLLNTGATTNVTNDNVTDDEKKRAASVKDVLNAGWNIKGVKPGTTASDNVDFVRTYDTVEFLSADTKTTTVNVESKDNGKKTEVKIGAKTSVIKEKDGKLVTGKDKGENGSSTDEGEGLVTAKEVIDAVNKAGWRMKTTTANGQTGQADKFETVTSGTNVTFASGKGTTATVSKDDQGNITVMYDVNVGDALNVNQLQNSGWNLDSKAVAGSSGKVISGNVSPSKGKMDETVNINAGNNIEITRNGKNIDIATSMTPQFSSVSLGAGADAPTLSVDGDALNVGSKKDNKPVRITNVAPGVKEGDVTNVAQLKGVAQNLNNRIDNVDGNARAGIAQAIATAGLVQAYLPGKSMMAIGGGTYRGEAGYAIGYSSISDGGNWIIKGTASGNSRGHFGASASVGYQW

Work on “biotinylated sulphated vitronectin peptide VA-26S (amino acids 43-68)” yielded a reduction in Msf binding to aVn of 30%.
